Reference: publication PMC9376891

Target: Rae1(31-368);Nup98(157-213) GLEBS (human;human, UniProt P78406;P52948 31-368;157-213, |)
Experiment: EMSA
Conditions: protein: recombinant;recombinant; tags: untagged;N-terminal His tag removed by TEV; copies: 1;1; label: 5' FAM; single strand

Sequence of Rae1(31-368);Nup98(157-213) GLEBS (P78406 31-368, chain 1 of 2): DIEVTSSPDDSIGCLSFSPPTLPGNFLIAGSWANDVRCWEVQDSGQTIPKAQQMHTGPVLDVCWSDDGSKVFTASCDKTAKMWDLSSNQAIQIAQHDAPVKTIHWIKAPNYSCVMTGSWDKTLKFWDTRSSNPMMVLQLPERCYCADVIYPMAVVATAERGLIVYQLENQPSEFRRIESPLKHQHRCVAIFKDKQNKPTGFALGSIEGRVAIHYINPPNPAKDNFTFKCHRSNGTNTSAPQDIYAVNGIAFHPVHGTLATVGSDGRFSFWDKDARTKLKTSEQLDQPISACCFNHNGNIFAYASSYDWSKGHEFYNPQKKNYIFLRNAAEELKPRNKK
Sequence of Rae1(31-368);Nup98(157-213) GLEBS (P52948 157-213, chain 2 of 2): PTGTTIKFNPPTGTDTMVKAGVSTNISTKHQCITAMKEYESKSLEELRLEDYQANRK

**Q.** Does UUUUUUUUUU (ssRNA) [10-mer poly(U) ssRNA] bind?
**A.** binds
